In patent US20170209564A1:

Legend:
Settings in all cases: remark: other sources report otherwise
113E7 [1] = assay: ELISA, coated CR6261, HEK293F medium
115A1 [2] = assay: ELISA, coated CR6261, HEK293F medium
127H1 [3] = assay: ELISA, coated CR6261, HEK293F medium
131B5 [4] = assay: ELISA, coated CR6261, HEK293F medium
171E5 [5] = assay: ELISA, coated CR6261, HEK293F medium
181H9 [6] = assay: ELISA, coated CR6261, HEK293F medium
220C9 [7] = assay: ELISA, coated CR6261, HEK293F medium
6E12 [8] = assay: ELISA, coated CR6261, HEK293F medium
71C4 [9] = assay: ELISA, coated CR6261, HEK293F medium
71H2 [10] = assay: ELISA, coated CR6261, HEK293F medium
74H9 [11] = assay: ELISA, coated CR6261, HEK293F medium
7A7 [12] = assay: ELISA, coated CR6261, HEK293F medium
86B4 [13] = assay: ELISA, coated CR6261, HEK293F medium
91C4 [14] = assay: ELISA, coated CR6261, HEK293F medium
113E7 [15] = assay: ELISA signal over HTRF expression signal, HEK293F
115A1 [16] = assay: ELISA signal over HTRF expression signal, HEK293F
127H1 [17] = assay: ELISA signal over HTRF expression signal, HEK293F
131B5 [18] = assay: ELISA signal over HTRF expression signal, HEK293F
171E5 [19] = assay: ELISA signal over HTRF expression signal, HEK293F
181H9 [20] = assay: ELISA signal over HTRF expression signal, HEK293F
220C9 [21] = assay: ELISA signal over HTRF expression signal, HEK293F
6E12 [22] = assay: ELISA signal over HTRF expression signal, HEK293F
71C4 [23] = assay: ELISA signal over HTRF expression signal, HEK293F
71H2 [24] = assay: ELISA signal over HTRF expression signal, HEK293F
74H9 [25] = assay: ELISA signal over HTRF expression signal, HEK293F
7A7 [26] = assay: ELISA signal over HTRF expression signal, HEK293F
86B4 [27] = assay: ELISA signal over HTRF expression signal, HEK293F
91C4 [28] = assay: ELISA signal over HTRF expression signal, HEK293F
[29] = target: T1, H1-mini2-cluster1+5+6-GCN4 without leader sequence and with FLAG-thrombin-foldon-HIS; assay: ELISA, coated CR6261, HEK293F medium; average of the parental
[30] = target: T1, H1-mini2-cluster1+5+6-GCN4 without …; assay: ELISA, coated CR6261, P. pastoris medium; average of the parental
[31] = target: T1, H1-mini2-cluster1+5+6-GCN4 without …; assay: ELISA signal over HTRF expression signal, HEK293F; the reference itself
[32] = target: T1, H1-mini2-cluster1+5+6-GCN4 without …; assay: ELISA signal over HTRF expression signal, HEK293F; average of the parental
s127H1 = assay: apparent Kd (Kd^app), purified polypeptide; method not stated
s55G7 = assay: as above
s6E12 = assay: as above
s74H9 = assay: as above
s86B4 = assay: as above
[33] = target: T1, H1-mini2-cluster1+5+6-GCN4 without …; assay: ELISA signal over HTRF expression signal, P. pastoris; the reference itself
[34] = target: T1, H1-mini2-cluster1+5+6-GCN4 without …; assay: ELISA signal over HTRF expression signal, P. pastoris; average of the parental

B1: CR6261 (antibody, V domains shown)
VH: EVQLVESGAEVKKPGSSVKVSCKASGGPFRSYAISWVRQAPGQGPEWMGGIIPIFGTTKYAPKFQGRVTITADDFAGTVYMELSSLRSEDTAMYYCAKHMGYQVRETMDVWGKGTTVTVSS
VL: QSVLTQPPSVSAAPGQKVTISCSGSSSNIGNDYVSWYQQLPGTAPKLLIYDNNKRPSGIPDRFSGSKSGTSATLGITGLQTGDEANYYCATWDRRPTAYVVFGGGTKLTVLG
CR6261 binding signal (113E7 [1]): 1.3e+07 | CR6261 binding signal (115A1 [2]): 9.56e+06 | CR6261 binding signal (127H1 [3]): 2.42e+07 | CR6261 binding signal (131B5 [4]): 5.73e+06 | CR6261 binding signal (171E5 [5]): 6.63e+06 | CR6261 binding signal (181H9 [6]): 1.19e+07 | CR6261 binding signal (220C9 [7]): 8.49e+06 | CR6261 binding signal (6E12 [8]): 1.53e+07 | CR6261 binding signal (71C4 [9]): 6.41e+06 | CR6261 binding signal (71H2 [10]): 2.11e+07 | CR6261 binding signal (74H9 [11]): 2.61e+07 | CR6261 binding signal (7A7 [12]): 6.19e+06 | CR6261 binding signal (86B4 [13]): 2e+07 | CR6261 binding signal (91C4 [14]): 8.44e+06 | fold increase of ratio over parental SEQ ID NO: 6 (113E7 [15]): 2.87 | ratio (binding signal/HTRF signal) (113E7 [15]): 49.9 | fold increase of ratio over parental SEQ ID NO: 6 (115A1 [16]): 3.14 | ratio (binding signal/HTRF signal) (115A1 [16]): 54.5 | fold increase of ratio over parental SEQ ID NO: 6 (127H1 [17]): 4.25 | ratio (binding signal/HTRF signal) (127H1 [17]): 73.8 | fold increase of ratio over parental SEQ ID NO: 6 (131B5 [18]): 2.36 | ratio (binding signal/HTRF signal) (131B5 [18]): 41 | fold increase of ratio over parental SEQ ID NO: 6 (171E5 [19]): 1.62 | ratio (binding signal/HTRF signal) (171E5 [19]): 28.1 | fold increase of ratio over parental SEQ ID NO: 6 (181H9 [20]): 2.11 | ratio (binding signal/HTRF signal) (181H9 [20]): 36.6 | fold increase of ratio over parental SEQ ID NO: 6 (220C9 [21]): 3 | ratio (binding signal/HTRF signal) (220C9 [21]): 52.1 | fold increase of ratio over parental SEQ ID NO: 6 (6E12 [22]): 2.85 | ratio (binding signal/HTRF signal) (6E12 [22]): 49.5 | fold increase of ratio over parental SEQ ID NO: 6 (71C4 [23]): 1.72 | ratio (binding signal/HTRF signal) (71C4 [23]): 29.9 | fold increase of ratio over parental SEQ ID NO: 6 (71H2 [24]): 3.61 | ratio (binding signal/HTRF signal) (71H2 [24]): 62.7 | fold increase of ratio over parental SEQ ID NO: 6 (74H9 [25]): 4.37 | ratio (binding signal/HTRF signal) (74H9 [25]): 75.8 | fold increase of ratio over parental SEQ ID NO: 6 (7A7 [26]): 1.47 | ratio (binding signal/HTRF signal) (7A7 [26]): 25.5 | fold increase of ratio over parental SEQ ID NO: 6 (86B4 [27]): 3.44 | ratio (binding signal/HTRF signal) (86B4 [27]): 59.6 | fold increase of ratio over parental SEQ ID NO: 6 (91C4 [28]): 1.98 | ratio (binding signal/HTRF signal) (91C4 [28]): 34.4 | CR6261 binding signal [29]: 5.66e+06 | CR6261 binding signal [30]: 238000 | fold increase of ratio over parental SEQ ID NO: 6 [31]: 1 | ratio (binding signal/HTRF signal) [32]: 17.4 | Kd (s127H1): 130 nM | Kd (s55G7): 150 nM | Kd (s6E12): 390 nM | Kd (s74H9): 130 nM | Kd (s86B4): 150 nM | fold increase of ratio over parental SEQ ID NO: 6 [33]: 1 | ratio (binding signal/HTRF signal) [34]: 5.94
